For this assay, the target named is SARS-CoV prefusion stabilised spike ectodomain trimer (SARS-CoV) (UniProt P59594). The experiment in a line: cryo-EM structure.

This is an account of results in publication doi:10.1101/2020.09.30.318261.

Usually stoichiometry N stands for the number of molecules, sites or subunits per partner or assembly. For the substance “SARS-CoV prefusion stabilised spike ectodomain trimer (from UniProt P59594 14-1160) (domain or fragment)”, the stoichiometry N was 3.
